± gives the standard deviation of the averaged measurements.
Test: total protein half-life in vivo (active degradation + dilution); higher = more stable protein
[1] = E. coli NCM3722 delta-clpP delta-lon delta-hslV, growth: N-lim chemostat, doubling time 6 h
[2] = E. coli NCM3722 delta-clpP, growth: N-lim chemostat, doubling time 6 h
[3] = E. coli NCM3722 delta-lon, growth: N-lim chemostat, doubling time 6 h
[4] = E. coli NCM3722 delta-smpB, growth: N-lim chemostat, doubling time 6 h
[5] = wild type E. coli NCM3722, growth: C-lim chemostat, doubling time 3 h
[6] = wild type E. coli NCM3722, growth: C-lim chemostat, doubling time 6 h
[7] = wild type E. coli NCM3722, growth: C-lim chemostat, doubling time 12 h
[8] = wild type E. coli NCM3722, growth: N-lim chemostat, doubling time 6 h
[9] = wild type E. coli NCM3722, growth: N-lim chemostat, doubling time 12 h
[10] = E. coli NCM3722 delta-hslV, growth: N-lim chemostat, doubling time 6 h
[11] = wild type E. coli NCM3722, growth: P-lim chemostat, doubling time 6 h
[12] = wild type E. coli NCM3722, growth: P-lim chemostat, doubling time 12 h

## MRNIIKLALAGLLSVSTFAVAAESSPEALRIGYQKGSIGMVLAKSHQLLEKRYPESKISWVEFPAGPQMLEALNVGSIDLGSTGDIPPIFAQAAGADLVYVGVEPPKPKAEVILVAENSPIKTVADLKGHKVAFQKGSSSHNLLLRALRQAGLKFTDIQPTYLTPADARAAFQQGNVDAWAIWDPYYSAALLQGGVRVLKDGTDLNQTGSFYLAARPYAEKNGAFIQGVLATFSEADALTRSQREQSIALLAKTMGLPAPVIASYLDHRPPTTIKPVNAEVAALQQQTADLFYENRLVPKKVDIRQRIWQPTQLEGKQL
[1]
  total protein half-life in vivo: 5.27 ± 1.8 h
[2]
  total protein half-life in vivo: 5.07 ± 0.72 h
[3]
  total protein half-life in vivo: 4.66 ± 1.7 h
[4]
  total protein half-life in vivo: 5.32 ± 0.25 h
[5]
  total protein half-life in vivo: > 4 h
[6]
  total protein half-life in vivo: 4.74 ± 0.1 h
[7]
  total protein half-life in vivo: 8.06 h
[8]
  total protein half-life in vivo: 5.64 h
[9]
  total protein half-life in vivo: 12.52 ± 0.069 h

## MRNPTLLQCFHWYYPEGGKLWPELAERADGFNDIGINMVWLPPAYKGASGGYSVGYDSYDLFDLGEFDQKGSIPTKYGDKAQLLAAIDALKRNDIAVLLDVVVNHKMGADEKEAIRVQRVNADDRTQIDEEIIECEGWTRYTFPARAGQYSQFIWDFKCFSGIDHIENPDEDGIFKIVNDYTGEGWNDQVDDELGNFDYLMGENIDFRNHAVTEEIKYWARWVMEQTQCDGFRLDAVKHIPAWFYKEWIEHVQEVAPKPLFIVAEYWSHEVDKLQTYIDQVEGKTMLFDAPLQMKFHEASRMGRDYDMTQIFTGTLVEADPFHAVTLVANHDTQPLQALEAPVEPWFKPLAYALILLRENGVPSVFYPDLYGAHYEDVGGDGQTYPIDMPIIEQLDELILARQRFAHGVQTLFFDHPNCIAFSRSGTDEFPGCVVVMSNGDDGEKTIHLGENYGNKTWRDFLGNRQERVVTDENGEATFFCNGGSVSVWVIEEVI
[1]
  total protein half-life in vivo: 5.23 ± 0.094 h
[2]
  total protein half-life in vivo: 4.16 ± 0.08 h
[10]
  total protein half-life in vivo: 4.036 ± 0.019 h
[3]
  total protein half-life in vivo: 4.4 ± 0.36 h
[4]
  total protein half-life in vivo: 4.26 ± 0.12 h
[5]
  total protein half-life in vivo: 3.21 ± 0.87 h
[6]
  total protein half-life in vivo: 6.29 ± 0.87 h
[7]
  total protein half-life in vivo: 12.4 ± 0.27 h
[8]
  total protein half-life in vivo: 4.2 ± 0.082 h
[9]
  total protein half-life in vivo: 6.75 ± 0.24 h
[11]
  total protein half-life in vivo: 5.54 ± 0.59 h
[12]
  total protein half-life in vivo: 13.4 ± 0.48 h

## MRPAGRSNNQVRPVTLTRNYTKHAEGSVLVEFGDTKVLCTASIEEGVPRFLKGQGQGWITAEYGMLPRSTHTRNAREAAKGKQGGRTMEIQRLIARALRAAVDLKALGEFTITLDCDVLQADGGTRTASITGACVALVDALQKLVENGKLKTNPMKGMVAAVSVGIVNGEAVCDLEYVEDSAAETDMNVVMTEDGRIIEVQGTAEGEPFTHEELLILLALARGESNPL [P0CG19]
[1]
  total protein half-life in vivo: 5.037 ± 0.026 h
[2]
  total protein half-life in vivo: 4.44 ± 0.39 h
[10]
  total protein half-life in vivo: > 8 h
[3]
  total protein half-life in vivo: 4.79 ± 0.48 h
[4]
  total protein half-life in vivo: 4.48 ± 0.11 h
[7]
  total protein half-life in vivo: 11.7 ± 3.8 h
[8]
  total protein half-life in vivo: 3.47 ± 0.77 h
[9]
  total protein half-life in vivo: 6.88 ± 0.082 h
[11]
  total protein half-life in vivo: 5.58 ± 0.93 h

## MRRANDPQRREKIIQATLEAVKLYGIHAVTHRKIATLAGVPLGSMTYYFSGIDELLLEAFSSFTEIMSRQYQAFFSDVSDAPGACQAITDMIYSSQVATPDNMELMYQLYALASRKPLLKTVMQNWMQRSQQTLEQWFEPGTARALDAFIEGMTLHFVTDRKPLSREEILRMVERVAG
[1]
  total protein half-life in vivo: 5.17 ± 0.91 h
[2]
  total protein half-life in vivo: 4.84 h
[10]
  total protein half-life in vivo: 4.98 ± 0.17 h
[4]
  total protein half-life in vivo: 4.87 ± 0.94 h
[5]
  total protein half-life in vivo: 2.46 ± 0.18 h
[6]
  total protein half-life in vivo: 4.6 h
[7]
  total protein half-life in vivo: 5.18 h
[8]
  total protein half-life in vivo: 5.11 h
[9]
  total protein half-life in vivo: 8.57 h
[11]
  total protein half-life in vivo: 4.06 h
[12]
  total protein half-life in vivo: 6.17 ± 0.89 h

## MRRELAIEFSRVTESAALAGYKWLGRGDKNTADGAAVNAMRIMLNQVNIDGTIVIGEGEIDEAPMLYIGEKVGTGRGDAVDIAVDPIEGTRMTAMGQANALAVLAVGDKGCFLNAPDMYMEKLIVGPGAKGTIDLNLPLADNLRNVAAALGKPLSELTVTILAKPRHDAVIAEMQQLGVRVFAIPDGDVAASILTCMPDSEVDVLYGIGGAPEGVVSAAVIRALDGDMNGRLLARHDVKGDNEENRRIGEQELARCKAMGIEAGKVLRLGDMARSDNVIFSATGITKGDLLEGISRKGNIATTETLLIRGKSRTIRRIQSIHYLDRKDPEMQVHIL [P0A9C9]
[2]
  total protein half-life in vivo: 4.69 ± 0.43 h
[10]
  total protein half-life in vivo: 4.84 ± 0.68 h
[3]
  total protein half-life in vivo: 4.309 ± 0.04 h
[4]
  total protein half-life in vivo: 4.27 ± 0.27 h
[5]
  total protein half-life in vivo: 3.593 ± 0.019 h
[6]
  total protein half-life in vivo: 5.39 ± 0.19 h
[7]
  total protein half-life in vivo: 9.84 ± 0.62 h
[8]
  total protein half-life in vivo: 4.51 ± 0.52 h
[9]
  total protein half-life in vivo: 7.05 ± 0.25 h
[11]
  total protein half-life in vivo: 5.75 ± 0.21 h
[12]
  total protein half-life in vivo: 12 ± 1.2 h

## MRRILSVLLENESGALSRVIGLFSQRGYNIESLTVAPTDDPTLSRMTIQTVGDEKVLEQIEKQLHKLVDVLRVSELGQGAHVEREIMLVKIQASGYGRDEVKRNTEIFRGQIIDVTPSLYTVQLAGTSGKLDAFLASIRDVAKIVEVARSGVVGLSRGDKIMR
[1]
  total protein half-life in vivo: 5.652 ± 0.022 h
[2]
  total protein half-life in vivo: 6.01 ± 0.31 h
[10]
  total protein half-life in vivo: 5.93 ± 0.45 h
[3]
  total protein half-life in vivo: 5.9 ± 0.55 h
[4]
  total protein half-life in vivo: 5.37 ± 0.21 h
[5]
  total protein half-life in vivo: 3.07 ± 0.047 h
[6]
  total protein half-life in vivo: 5.93 ± 0.13 h
[7]
  total protein half-life in vivo: 10.5 ± 0.55 h
[8]
  total protein half-life in vivo: 5.72 ± 0.27 h
[9]
  total protein half-life in vivo: 9.51 ± 0.46 h
[11]
  total protein half-life in vivo: 5.98 ± 0.1 h
[12]
  total protein half-life in vivo: 12.4 ± 0.78 h

## MRRLPGILLLTGAALVVIAALLVSGLRIALPHLDAWRPEILNKIESATGMPVEASQLSASWQNFGPTLEAHDIRAELKDGGEFSVKRVTLALDVWQSLLHMRWQFRDLTFWQLRFRTNTPITSGGSDDSLEASHISDLFLRQFDHFDLRDSEVSFLTPSGQRAELAIPQLTWLNDPRRHRAEGLVSLSSLTGQHGVMQVRMDLRDDEGLLSNGRVWLQADDIDLKPWLGKWMQDNIALETAQFSLEGWMTIDKGDVTGGDVWLKQGGASWLGEKQTHTLSVDNLTAHITRENPGWQFSIPDTRITMDGKPWPSGALTLAWIPEQDVGGKDNKRSDELRIRASNLELAGLEGIRPLAAKLSPALGDVWRSTQPSGKINTLALDIPLQAADKTRFQASWSDLAWKQWKLLPGAEHFSGTLSGSVENGLLTASMKQAKMPYETVFRAPLEIADGQATISWLNNNKGFQLDGRNIDVKAKAVHARGGFRYLQPANDEPWLGILAGISTDDGSQAWRYFPENLMGKDLVDYLSGAIQGGEADNATLVYGGNPQLFPYKHNEGQFEVLVPLRNAKFAFQPDWPALTNLDIELDFINDGLWMKTDGVNLGGVRASNLTAVIPDYSKEKLLIDADIKGPGKAVGPYFDETPLKDSLGATLQELQLDGDVNARLHLDIPLNGELVTAKGEVTLRNNSLFIKPLDSTLKNLSGKFSFINSDLQSEPLTASWFNQPLNVDFSTKEGAKAYQVAVNLNGNWQPAKTGVLPEAVNEALSGSVAWDGKVGIDLPYHAGATYNIELNGDLKNVSSHLPSPLAKPAGEPLAVNVKVDGNLNSFELTGQAGADNHFNSRWLLGQKLTLDRAIWAADSKTLPPLPEQSGVELNMPPMNGAEWLALFQKGAAESVGGAASFPQHITLRTPMLSLGNQQWNNLSIVSQPTANGTLVEAQGREINATLAMRNNAPWLANIKYLYYNPSVAKTRGDSTPSSPFPTTERINFRGWPDAQIRCTECWFWGQKFGRIDSDITISGDTLTLTNGLIDTGFSRLTADGEWVNNPGNERTSLKGKLRGQKIDAAAEFFGVTTPIRQSSFNVDYDLHWRKAPWQPDEATLNGIIHTQLGKGEITEINTGHAGQLLRLLSVDALMRKLRFDFRDTFGEGFYFDSIRSTAWIKDGVMHTDDTLVDGLEADIAMKGSVNLVRRDLNMEAVVAPEISATVGVAAAFAVNPIVGAAVFAASKVLGPLWSKVSILRYHISGPLDDPQINEVLRQPRKEKAQ
[1]
  total protein half-life in vivo: 6.25 ± 0.48 h
[2]
  total protein half-life in vivo: 6.38 ± 0.3 h
[10]
  total protein half-life in vivo: 6.18 ± 0.12 h
[3]
  total protein half-life in vivo: 6.21 ± 0.18 h
[4]
  total protein half-life in vivo: 5.844 ± 0.013 h
[5]
  total protein half-life in vivo: 3.185 ± 0.015 h
[6]
  total protein half-life in vivo: 6.62 ± 0.46 h
[7]
  total protein half-life in vivo: 12.6 ± 0.73 h
[8]
  total protein half-life in vivo: 6.11 ± 0.16 h
[9]
  total protein half-life in vivo: 12.2 ± 1.2 h
[11]
  total protein half-life in vivo: 5.67 ± 0.26 h
[12]
  total protein half-life in vivo: 9.67 ± 1.6 h

## MRRVNILCSFALLFASHTSLAVTYPLPPEGSRLVGQSFTVTVPDHNTQPLETFAAQYGQGLSNMLEANPGADVFLPKSGSQLTIPQQLILPDTVRKGIVVNVAEMRLYYYPPDSNTVEVFPIGIGQAGRETPRNWVTTVERKQEAPTWTPTPNTRREYAKRGESLPAFVPAGPDNPMGLYAIYIGRLYAIHGTNANFGIGLRVSQGCIRLRNDDIKYLFDNVPVGTRVQIIDQPVKYTTEPDGSNWLEVHEPLSRNRAEYESDRKVPLPVTPSLRAFINGQEVDVNRANAALQRRSGMPVQISSGSRQMF
[1]
  total protein half-life in vivo: 5.58 ± 1.1 h
[2]
  total protein half-life in vivo: 6.17 ± 0.48 h
[10]
  total protein half-life in vivo: 5.997 ± 0.037 h
[3]
  total protein half-life in vivo: 6.9 ± 1 h
[4]
  total protein half-life in vivo: 5.83 ± 0.5 h
[5]
  total protein half-life in vivo: 3.35 ± 0.46 h
[6]
  total protein half-life in vivo: 5.64 ± 0.53 h
[7]
  total protein half-life in vivo: 10.128 ± 0.0088 h
[8]
  total protein half-life in vivo: 6.43 ± 0.88 h
[9]
  total protein half-life in vivo: 11.4 ± 0.34 h
[11]
  total protein half-life in vivo: 5.24 ± 0.69 h
[12]
  total protein half-life in vivo: 11.3 ± 0.51 h

## MRSAQVYRWQIPMDAGVVLRDRRLKTRDGLYVCLREGEREGWGEISPLPGFSQETWEEAQSVLLAWVNNWLAGDCELPQMPSVAFGVSCALAELTDTLPQAANYRAAPLCNGDPDDLILKLADMPGEKVAKVKVGLYEAVRDGMVVNLLLEAIPDLHLRLDANRAWTPLKGQQFAKYVNPDYRDRIAFLEEPCKTRDDSRAFARETGIAIAWDESLREPDFAFVAEEGVRAVVIKPTLTGSLEKVREQVQAAHALGLTAVISSSIESSLGLTQLARIAAWLTPDTIPGLDTLDLMQAQQVRRWPGSTLPVVEVDALERLL
[10]
  total protein half-life in vivo: 3.779 ± 0.0063 h
[3]
  total protein half-life in vivo: 4.33 ± 0.7 h
[4]
  total protein half-life in vivo: 3.7 ± 0.25 h
[5]
  total protein half-life in vivo: 3.25 ± 0.19 h
[6]
  total protein half-life in vivo: 5.71 ± 0.44 h
[7]
  total protein half-life in vivo: 13.2 h
[8]
  total protein half-life in vivo: 3.88 ± 0.14 h
[9]
  total protein half-life in vivo: 6.68 ± 0.4 h
[11]
  total protein half-life in vivo: 5.7 ± 0.073 h
[12]
  total protein half-life in vivo: 11.5 ± 0.8 h
